Experimental data reported in US20220112525A1, “BIOSYNTHESIS OF VANILLIN FROM ISOEUGENOL” (Conagen Inc., priority 2019, published 2022).

What was measured:
[1] = Enzyme assay in vitro with 4,4'-dihydroxy-3,3'-dimethoxystilbene as substrate, vanillin detected by HPLC; type: biochemical; details: 30° C., 50 mM Tris-HCl pH 8.5, substrate 200 μM
Protocol: The activity of FfLSD was determined by two substrates, 4,4′-dihydroxy-3,3′-dimethoxystilbene and isoeugenol, respectively. For measuring the activity toward 4,4′-dihydroxy-3,3′-dimethoxystilbene, the activity was assayed at 30° C. in 2.5 ml of 50 mM Tris-HCl buffer (PH 8.5) containing suitable amounts of enzyme solution. The enzyme reaction was started by addition of substrates dissolved in 10 μL of N,N-dimethylformamide (DMF) to a final concentration of 200 μM. The reaction product, vanillin, was detected with HPLC analysis.

[2] = Enzyme assay in vitro with isoeugenol as substrate, formation of vanillin by HPLC; type: biochemical; details: 10 mM isoeugenol, 10 min
Protocol: The activity was also measured with isoeugenol by measuring the formation of vanillin. The reaction mixture contained 10 mM isoeugenol, 100 mM potassium phosphate buffer (pH 7.0), 10% (v/v) ethanol and an appropriate amount of enzyme, in a total volume of 1 ml. The reaction was started, by adding isoeugenol as ethanol solution, carried out at 30° C. for 10 min with reciprocal shaking (160 strokes min^−1) and stopped with 1 ml of methanol. After centrifugation at 21,500, the supernatant was analyzed by HPLC for the determination of isoeugenol, vanillin, vanillyl alcohol. FfLSD enzyme treated in boiling water for 5 minutes was used as the negative control.
Almost all isoeugenol added to the reaction mixture was converted to vanillin (top panel). As expected, no vanillin was produced with the negative control (bottom panel).

activity toward 4,4′-dihydroxy-3,3′-dimethoxystilbene [1]: did not show activity
isoeugenol added to the reaction mixture converted to vanillin ([2]; pH 7.0, 30° C., HPLC (FIG. 6)): Almost all
activity toward isoeugenol ([2]; potassium phosphate pH 7.0, 30° C.): high activity
B1: FfLSD: putative lignostilbene-α, β-dioxygenase from the fungus Fusarium fujikuroi, 522 amino acids (SEQ ID NO: 2), recombinant, His-tagged (protein, listed as Fusarium fujikuroi)
chain: MSAPEEHHGLKSKWPQAFDLAGSNSPCRIEGEIGDLVVLGEIPPAIDGTFYRVMCDPFVPPHPDNVPLDGDGHVSAFRIYNGRVDMKIKYVETERYKLERKAGKALFGLYRNPFTHHPCVRAAVDSTANTNMVYWADRLLALKESALPYEMHPDTLETLCYDPFGGQVKAKAFTAHPKIDPFSDELVVYGYEAKGLATRDIVIYSLDKNGIKHDEQWIESPWCAPIHDCVITPNFIVLILWPFEASVERMKAGKQHWAWDYSLPATFIVVPRRKTSKIPASWKQGEHRVYHWKNCMNIHAGSAWEEDNGKLYLETSRVHDNAFPFFPPVDGRMPAPDAKADFVRWEIDLNAPSGTQMADPEVILDVPSEFPRIDERFMTKRNEYLFLNVFIPETSQGGTNIFHGLNGLAMHNHSTGETKWFFAGKDSLVQEPIFIPRTADAPEGDGWVIAMLERRVANRSELVVLDTREFEKPVAFIQLPMHLKAQVHGNWIDSRTRASTEAIVRQIGEVKVSARGALEPLA
modifications: His tag
